Test [1] concerns the target human FCγRIIIa receptor (human) (UniProt P08637). Description: BLI; Ratio of the hIgG (hIgG1) control against itself. (Biolayer interferometry detects binding as a change in optical thickness at a sensor tip.)
Test [2] has the same target. Description: BLI (Octet 96), antibody loaded on sensor, FCγRIIIa 200 nM and 2-fold dilutions in solution.

human FCγRIIIa receptor (human), sequence (P08637 17-208 limits assumed): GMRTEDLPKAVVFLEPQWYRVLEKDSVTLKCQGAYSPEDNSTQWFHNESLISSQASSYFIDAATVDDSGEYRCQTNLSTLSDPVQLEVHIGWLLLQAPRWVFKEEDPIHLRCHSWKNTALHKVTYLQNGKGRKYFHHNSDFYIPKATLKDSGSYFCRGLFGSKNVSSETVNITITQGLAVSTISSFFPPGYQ

Take control sample hIgG1 (antibody): the Ratio in test [1] came out at 1. The same substance returned a Kd in test [2] of 88.6 nM.

A word on the Kd: it is a measure of binding affinity in units of concentration. Read a high Kd as lower affinity.
